The assay has as its target Man9GlcNAc2 glycopeptide isolated from soybean agglutinin (soybean, UniProt P05046, Man9GlcNAc2 oligosaccharide, N-linked). As to the kind of experiment: SPR; glycopeptide immobilized. (In general: SPR reads the build-up and loss of mass on a sensor chip optically.)

Sequence of Man9GlcNAc2 glycopeptide isolated from soybean agglutinin (P05046 whole entry): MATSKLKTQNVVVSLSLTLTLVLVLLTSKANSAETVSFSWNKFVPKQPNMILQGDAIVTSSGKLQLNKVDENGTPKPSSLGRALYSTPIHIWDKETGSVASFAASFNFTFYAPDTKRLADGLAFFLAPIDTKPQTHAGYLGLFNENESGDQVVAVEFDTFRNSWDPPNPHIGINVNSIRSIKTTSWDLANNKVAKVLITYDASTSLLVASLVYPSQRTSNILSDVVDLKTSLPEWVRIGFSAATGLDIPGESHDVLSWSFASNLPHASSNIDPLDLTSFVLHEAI

B1: monomeric carbohydrate-recognition domain (CRD) from DC-SIGN (domain or fragment)
chain: ERLCHPCPWEWTFFQGNCYFMSNSQRNWHDSITACKEVGAQLVVIKSAEEQNFLQLQSSRSNRFTWMGLSDLNQEGTWQWVDGSPLLPSFKQYWNRGEPNNVGEEDCAEFSGNGWNDDKCNLAKFWICKKSAASCSRDEEQFLSPAPATPNPPPA
What is called Kd is a measure of binding affinity in units of concentration. Molecule B1 gave an equilibrium dissociation constant (Kd) of 66 µM.

The values above are taken from publication PMC2824085 (2010).
